Reference: US20240100159A1, “USE OF IL-7R-ALPHA-GAMMA AGONIST PEPTIDES IN CELL MANUFACTURING” (MEDIKINE, INC., priority 2022, published 2024)
Ends that are not written are not given here.

T1: hu-IL-7Rγc subunit (human), P31785
T1 chain: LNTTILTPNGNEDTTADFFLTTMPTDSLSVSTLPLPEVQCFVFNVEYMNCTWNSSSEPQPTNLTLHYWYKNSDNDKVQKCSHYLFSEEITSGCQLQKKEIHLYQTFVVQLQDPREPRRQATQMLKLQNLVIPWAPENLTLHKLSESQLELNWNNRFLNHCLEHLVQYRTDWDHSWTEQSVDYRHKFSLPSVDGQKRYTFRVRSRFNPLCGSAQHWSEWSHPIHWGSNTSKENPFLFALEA

T2: hu-IL-7Rγc subunit (human, UniProt P31785 23-262, limits assumed)
T2 construct: also called human Rγc subunit; common γc receptor
T2 sequence (looked up): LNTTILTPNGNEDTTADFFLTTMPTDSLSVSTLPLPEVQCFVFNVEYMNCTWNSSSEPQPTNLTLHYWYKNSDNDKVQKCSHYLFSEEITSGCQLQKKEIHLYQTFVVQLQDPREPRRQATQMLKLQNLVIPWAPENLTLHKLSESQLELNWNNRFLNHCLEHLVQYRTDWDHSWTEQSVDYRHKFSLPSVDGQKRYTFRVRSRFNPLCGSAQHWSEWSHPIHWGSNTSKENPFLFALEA


Biological target: T1, hu-IL-7Rγc subunit (human), P31785

IC50, < 100 µM:
RVQVECEDWNGVELCWPVRV (modifications not checked) [SEQ ID NO 296]
IVCEDWRGVELCWI (modifications not checked) [SEQ ID NO 269]
PEGREVVVCRDWYGVELCWQ (modifications not checked) [SEQ ID NO 248]
GPEVVCEEFNRVELCWVEYN (modifications not checked) [SEQ ID NO 305]
DRQVVCEEWDGVELCWIEES (modifications not checked) [SEQ ID NO 297]
DFERSYVVCQDWDGVELCWI (modifications not checked) [SEQ ID NO 257]
GYGVLCQEWQGVELCWPVQREAGV (modifications not checked) [SEQ ID NO 291]
GLEIACEDWYGVELCWLRRA (modifications not checked) [SEQ ID NO 290]
DVVCQNWDGVDLCWH (modifications not checked) [SEQ ID NO 266]
SAPERWVECEDWQGVELCWV (modifications not checked) [SEQ ID NO 259]
KITVECQDWDGVELCWPTWI (modifications not checked) [SEQ ID NO 286]
AVCQDWYGVELCWCMQDILD (modifications not checked) [SEQ ID NO 314]
ERPRSFIECQEWEGVELCWL (modifications not checked) [SEQ ID NO 272]
IVCEEYNGVELCWVETSVKP (modifications not checked) [SEQ ID NO 309]
GDRPKEVVCEDWKGVELCWI (modifications not checked) [SEQ ID NO 271]
VVCQEWEGVELCWQTGPGAHA (modifications not checked) [SEQ ID NO 308]
TDEVSCQEWEGVELCWIERQ (modifications not checked) [SEQ ID NO 303]
ANQNTVVECQDWHGVELCWQ (modifications not checked) [SEQ ID NO 274]
HEAREVVVCQDWYGVELCWQ (modifications not checked) [SEQ ID NO 251]
DWRRSVVECQDWYGVELCWQ (modifications not checked) [SEQ ID NO 265]
KSQVECQDWEGVELCWVVSE (modifications not checked) [SEQ ID NO 285]
EQQVVCQEWNGVELCWIEAG (modifications not checked) [SEQ ID NO 310]
IECEEWRGVELCWQ (modifications not checked) [SEQ ID NO 247]
RWAVSCQDWQGIELCWPEWD (modifications not checked) [SEQ ID NO 319]
PVEVRCQEWEGVELCWVVGI (modifications not checked) [SEQ ID NO 304]
TWNMSELECQDWNGVEICWH (modifications not checked) [SEQ ID NO 277]
VSCQEWDGVELCWVDGDLAA (modifications not checked) [SEQ ID NO 288]
TAEVVCQEWDGVELCWIEVL (modifications not checked) [SEQ ID NO 312]
SAGRQEVVCQDWNGVELCWI (modifications not checked) [SEQ ID NO 263]
VECQEWGGVELCWC (modifications not checked) [SEQ ID NO 254]
GNDDSYIVCEEWKGVELCWI (modifications not checked) [SEQ ID NO 278]
SPSIVCEEWAGVELCWVDYS (modifications not checked) [SEQ ID NO 313]
INCQTWNGVELCWVDEGLYQ (modifications not checked) [SEQ ID NO 294]
DVVCQNWEGVDLCWH (modifications not checked) [SEQ ID NO 262]
QLGVECQNWRGVELCWVSEI (modifications not checked) [SEQ ID NO 311]
TANQTVVECQVWGGVELCWQ (modifications not checked) [SEQ ID NO 253]
RPEVVCQEWEGVELCWISPL (modifications not checked) [SEQ ID NO 299]
RPQIECQEWQGVELCWTREE (modifications not checked) [SEQ ID NO 287]
IWGRTVVECQDWEGVELCWQ (modifications not checked) [SEQ ID NO 249]
VECEEWGGVELCWLADEVMW (modifications not checked) [SEQ ID NO 315]
PYGVVCQDWAGVELCWVENR (modifications not checked) [SEQ ID NO 292]
GQGREVVVCHDWYGVELCWQ (modifications not checked) [SEQ ID NO 264]
HSTVICQDWDGVELCWIEND (modifications not checked) [SEQ ID NO 316]
RLGVECQEWEGVDLCWISAF (modifications not checked) [SEQ ID NO 300]
TLGRTVVECQDWGGVELCWQ (modifications not checked) [SEQ ID NO 267]
LNRSVWIECEEYEGVELCWL (modifications not checked) [SEQ ID NO 280]
IMCQEWDGVELCWLERDKAN (modifications not checked) [SEQ ID NO 289]
RTEVECEDWEGVELCWL (modifications not checked) [SEQ ID NO 322]
IVCEEWRGVELCWL (modifications not checked) [SEQ ID NO 256]
KYIVECQEWGGVELCWPEMV (modifications not checked) [SEQ ID NO 306]
SVEVVCEEWHGVELCWPVFI (modifications not checked) [SEQ ID NO 318]

Each binder was assayed against T2, hu-IL-7Rγc subunit.

IC50, < 100 µM:
IECDTSYGVYICWQ (not fully specified (bridges); cysteine pairing not given here, also called Rγc ligand) [SEQ ID NO 246]
LALRKEVVCQEYYGVELCWI (not fully specified (bridges); cysteine pairing not given here, also called Rγc ligand) [SEQ ID NO 250]
MVNREVVVCEDWYGVELCWQ (not fully specified (bridges); cysteine pairing not given here, also called Rγc ligand) [SEQ ID NO 252]
ILCEEWQGVELCWLEGGGS (not fully specified (bridges); cysteine pairing not given here, also called Rγc ligand) [SEQ ID NO 323]
VGIECEEWAGVELCWL (not fully specified (bridges); cysteine pairing not given here, also called Rγc ligand) [SEQ ID NO 324]
RTGVECQDWHGVELCWPVWE (not fully specified (bridges); cysteine pairing not given here, also called Rγc ligand) [SEQ ID NO 320]
GYGVVCEDFRGVELCWLERK (not fully specified (bridges); cysteine pairing not given here, also called Rγc ligand) [SEQ ID NO 321]
